Data on two sequences can be found in paper PMC6855506.

Data set [1] deals with T1, AphA (Vibrio cholerae) (UniProt Q9X399).
T1 sequence: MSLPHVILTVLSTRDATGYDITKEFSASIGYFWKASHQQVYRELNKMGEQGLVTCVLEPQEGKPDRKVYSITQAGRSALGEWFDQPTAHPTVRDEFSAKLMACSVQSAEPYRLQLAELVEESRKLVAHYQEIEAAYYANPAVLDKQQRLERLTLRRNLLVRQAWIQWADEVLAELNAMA
The data set can be described thus: EMSA. The conditions noted are these: 40 mM Tris acetate pH 7.9, 50 mM KCl, 5 mM MgCl2, 500 uM DTT, 12.5 ug/ml herring sperm DNA; EMSA 15 min at 37 C. (A gel shift assay detects complexes by their altered migration in electrophoresis.)

The target of data set [2] is T2, CRP (Vibrio cholerae) (UniProt O34015).
T2 sequence: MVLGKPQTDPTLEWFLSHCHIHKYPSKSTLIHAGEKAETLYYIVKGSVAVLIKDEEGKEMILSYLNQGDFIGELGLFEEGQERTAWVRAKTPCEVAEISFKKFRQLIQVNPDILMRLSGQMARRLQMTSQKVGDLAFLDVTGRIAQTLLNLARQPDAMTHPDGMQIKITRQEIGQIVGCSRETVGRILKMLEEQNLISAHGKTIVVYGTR
Put plainly: EMSA. Particulars: 40 mM Tris acetate pH 7.9, 50 mM KCl, 5 mM MgCl2, 500 uM DTT, 12.5 ug/ml herring sperm DNA; EMSA 15 min at 37 C.

Regarding “AATTCCATTTCCCAAAATCCTTTGCAAACCGTGAGAGGATGATGAATCAACTTGCATAGATGCTAACAGCTATCAAAAATGGCGTTGTTTTATAAAGAGAAGTAATGGAAATGA / AGCTTCATTTCCATTACTTCTCTTTATAAAACAACGCCATTTTTGATAGCTGTTAGCATCTATGCAAGTTGATTCATCATCCTCTCACGGTTTGCAAAGGATTTTGGGAAATGG [VC0857-VC0858 intergenic region]”, the binding result in data set [1] is given as “binds”.
“AATTCTAGAGGAGCAACAAAAAATTGACGCTGTGATACTGGTCTCATAATCTGGCGCAAAAGTATTGCATCGATGTGAGATAAGTCCAGACTTATTTCTCTTCGTAAACTATCATTAGCTTCATAAAACAAGCA / AGCTTGCTTGTTTTATGAAGCTAATGATAGTTTACGAAGAGAAATAAGTCTGGACTTATCTCACATCGATGCAATACTTTTGCGCCAGATTATGAGACCAGTATCACAGCGTCAATTTTTTGTTGCTCCTCTAG [tfoX promoter wild type]”: the binding entry in data set [1] and in data set [2] was “binds” throughout.
